Measurements reported in US6703037B1, “Biodegradable macromers for the controlled release of biologically active substances” (Pelias Technologies, Inc., priority 1997, dated 2004).

What was measured:
[1] = test system: male Sprague-Dawley rats; assay: Fraction of reticulocytes in rats given EPO (Example 11); assay type: in vivo, rat; conditions: day 5, Acridine Orange, flow cytometry
Description: The controlled delivery of active human erythropoeitin (EPO) was confirmed in male Sprague-Dawley rats purchased from Taconic Labs (Germantown, N.Y.). Hydrogel devices were manufactured to contain 3000 Units per device, as described in Example 14. These devices were prepared in the absence of vinyl pyrrolidone, and other polymerizable monovinyl monomers. One of these devices was implanted in each of 3 rats. Three other rats received a subcutaneous injection of EPO (1000 Units) daily for 3 days. A control group of 3 rats received no treatment.
On day 5 after implantation of the device or the start of the subcutaneous injections, venous blood samples were obtained from each rat and stored in EDTA. The fraction of reticulocytes (immature red blood cells) was determined after staining with Acridine Orange by automated flow cytometry.

[2] = In vitro release of EPO from 3.4KL5 discs, size exclusion chromatography (Example 14); assay type: physicochemical
Description: To a sterile 20 mL vial were added: 0.0330 g of TEOA (neat), 1.0076 g of 3.4KL5, 0.0598 g of 1000 ppm eosin (in PBS, pH 7.0), and 2.32 g solution of EPO (10,000 units/mL). No vinyl pyrrolidone, or other polymerizable monovinyl monomer was added. The resulting mixture was mixed and polymerized by light (ILC Technology, Inc. Xenon Light Source with Fiber Optics).
The rate of in vitro release was conducted by averaging the release from 3 discs containing an average of 2500 units per disc. The release was conducted in 4 mL of PBS (pH 7.4) at 39° C. The release media was exchanged daily. Analysis was done by size exclusion chromatography. (HPLC: model 2690 by waters, Column: SEC 250 by BioRad, mobile phase: 0.8M TFA in 60% acetonitrile @1.5 mL/min, detector wavelength: 220 nm).

[3] = In vitro short term release of insulin from 3.4KL5, SEC-HPLC (Example 6); assay type: physicochemical; conditions: Zn-Insulin 47% loading in 3.4KL5
Description: Device Preparation: A degradable macromer (3.4KL5) was used. […] The protein was loaded at a loading of 47%, based on dry weight. Three samples were prepared.
The samples were prepared as described in Example 4. The samples were analyzed by SEC-HPLC for the detection of monomers, dimers and soluble aggregates, using the conditions described in Example 5.

[4] = In vitro release of insulin from 3.4KL5 particles, size exclusion chromatography (Example 15); assay type: physicochemical
Description: No vinyl pyrrolidone, or other polymerizable monovinyl monomer was added. The resulting mixture was mixed and placed into 10 mL glass tubes. The tubes were exposed to xenon light (ILC Technology, Inc. Xenon Light Source with Fiber Optics) for 10 seconds. The semi-cured hydrogel was pushed out of the glass tube and further polymerized for 3.5 minutes. The cured hydrogel rods were placed in 15 mL of heptane and ground using a homogenizer (Silverson L4RT-A) for 30 seconds @5000 rpm, followed by 30 seconds @3000 rpm. The heptane was decanted, and the powder was dried under nitrogen.
Particles (16 mg) were placed in a porous (0.8 mm) “release-bag” (described in Example 5). The in vitro release was calculated by averaging the release from 2 release bags. The release-bag was placed into 2 mL of PBS (pH 7.4) at 39° C. The release media was exchanged every 15 minutes for the first 2 hours and every 30 minutes thereafter. Analysis was done by size exclusion chromatography. (HPLC: model 2690 by waters, Column: SEC 250 by BioRad, mobile phase: 0.8M TFA in 60% acetonitrile @1.5 mL/min, detector wavelength: 220 nm).

[5] = test system: hypophysectomized rats; assay: Growth of hypophysectomized rats given hGH (Example 13); assay type: in vivo, rat; conditions: hypophysectomized female rats; initial results
From the text: The controlled delivery of active human growth hormone (hGH, MW 20 Kd) was confirmed in the hypophysectomized rat model. Hypophysectomized female rats purchased from Taconic Labs (Germantown, N.Y.) were weighed each morning. Prior to the initiation of the study the rats were held 7 days to confirm lack of growth. The rats were divided into 3 groups of equal mean weights. Group 1 remained untreated and served as a negative control. Group 2 received an implant of hGH in a hydrogel made of a 3:1 blend of 3.4KL5 and 3.4KC6 (each device contained approximately 1 mg of hGH). The rats in Group 3 were injected with 100 μg hGH subcutaneously each day for the duration of the study.

[6] = test system: hypophysectomized rats; assay: Growth of hypophysectomized rats given bST (Example 9); assay type: in vivo, rat; conditions: hypophysectomized female rats, 118±1.5 grams on day 1; mean±sem
From the text: The controlled delivery of active bovine somatotropin (MW 20 Kd) was confirmed in the hypophysectomized rat model. Hypophysectomized female rats were purchased from Taconic Labs (Germantown, N.Y.). The rats were weighed each morning. Prior to the initiation of the study, the rats were held 7 days to confirm lack of growth. On day 1 of the study the rats weighed 118±1.5 grams (mean±sem, n=18). The rats were divided into 3 groups of equal mean weights. Group 1 remained untreated and served as a negative control. Group 2 received an implant of bST in a hydrogel made of a blend of 3:1 of 3.4KL5 and PEGDA (each device contained 0.9 to 1.1 mg of bST). The rats in Group 3 were injected with 100 μg bST subcutaneously each day for the duration of the study.

[7] = Release of bST from cylindrical hydrogel devices of large and small diameter, HPLC (Example 10); assay type: physicochemical
Description: A macromer mixture containing approximately 30% (w/w) of bST was prepared using the methods described above. The macromer/protein mixture was put in a glass cylinder having an internal diameter of either 1.12 mm or 0.61 mm. The system was exposed to light for 20 seconds, removed from the glass cylinder, placed on aluminum foil, and exposed to light for an additional 3.5 minutes. The resulting hydrogel cylinders were placed in 1 mL of release media (PBS, pH 7.4), and the released bST was monitored by HPLC. […] In addition, the characteristics of the bST release indicated degradation/swelling of a controlled system. […] For n=0.5, the drug release follows a Fickian-diffusion mechanism. For n>0.5, non-Fickian behavior was observed.
In a different analysis based only on diffusion, the flux from the cylinder was analyzed using the following Fickian equation: J=D*A*ΔC/ΔX, where J is the flux; D is the diffusion constant; A is the surface area; C is the concentration in the cylinder; and […] from the center. In this analysis the flux should differ dramatically whether the release occurred from either a large or a small diameter cylinder. Theoretical analysis predicted that under Fickian diffusion, when the smaller diameter cylinder released 20%, the larger diameter cylinder would release 7% of the incorporated drug. […]

[8] = In vitro release of bST from 3.4KL5/PEG-diacrylate blend discs, SEC-HPLC (Example 5); assay type: physicochemical
Description: Device Preparation: A blend of a degradable macromer (3.4KL5) and a non-degradable macromer (PEG-diacrylate, MW 3,400) was used. The protein used was ZnbST (Monsanto/Protiva). The protein was loaded at a loading of 20%, based on dry weight. 3 samples were prepared, as follows.
Sample preparation: 20 μL of the bST-precursor solution were prepared, as described in Example 1. The mixture was pipetted using a positive displacement pipette with a silanized glass tip. The solution was placed onto a silanized glass slide. Using pieces of plastic sheets with thicknesses of about 0.4±0.2 mm as spacers, another silanized glass slide was placed on top and held firmly in place using binder clips. A light source (ILC Technology, Inc. Xenon Light Source with Fiber Optics) was adjusted to about a 5-cm distance from the glass slide using clamps and a stand. The center of the disc was illuminated; both sides of the disc were illuminated, for two minutes each.
The clips, the glass slide, and the spacers were carefully removed. With a spatula and tweezers, the discs were removed and weighed on a clean, tared silanized glass slide. The disc was placed into a heat-sealed membrane bag, as described in more detail below. One 20 μL disc was placed in each bag. The bag was heat-sealed, placed in 2.0 mL of phosphate buffer release media (0.01% NaN3, 0.05M PBS, pH 7.4), placed on an orbital shaker turning at 100 rpm, and incubated at 39° C.
For each time point, the bag was placed into fresh 2.0 mL of PBS Release Media. Samples were collected for analysis every day for as long as the bST was being released.
Membrane bags were prepared as follows. Membrane sheets were cut into pieces of approximately 7×2.5 cm. The sheets were folded in half. Using a Bunsen burner or a propane torch, a spatula was heated until it became red. The edges of the sheets were aligned, and the side of the membrane was cut with the […] to seal the sides. […]
The samples were analyzed daily by SEC-HPLC. Monomers, dimers, and soluble aggregates could be detected using this method. […]

[9] = In vitro release of ZnbST from 50:50 blend of 3.4KL5 and 3.4KC6, SEC-HPLC (Example 7); assay type: physicochemical; conditions: 25% loading in 50:50 blend of 3.4KL5 and 3.4KC6
Description: Devices were prepared as describe above. Macromers containing a blend of a soluble macromer (3.4KL5) and an insoluble macromer (3.4KC6) were used in a ratio of 50:50. The protein used was ZnbST (Protiva/Monsanto); it was loaded at a loading of 25%, based on dry weight. Six samples were prepared. The samples were analyzed by SEC-HPLC, as described above. The samples were monitored for the presence of monomers, dimers and soluble aggregates.

[10] = In vitro release of ZnbST from 75:25 blend of 3.4KL5 and 3.4KC6, SEC-HPLC (Example 8); assay type: physicochemical
Description: Devices were prepared as describe above. A blend of a soluble macromer (3.4KL5) and an insoluble macromer (3.4KC6) were used, in a ratio of 75:25. The protein ZnbST (Protiva/Monsanto) was loaded at a loading of 25%, based on dry weight. Six samples were prepared. The samples were analyzed by SEC-HPLC to detect monomers, dimers, and soluble aggregates, as described above.

EPO: human erythropoeitin
reticulocytes [1]: about 19%
EPO still being released ([2]; after 120 hours): over 500 units
period over which EPO was released ([2]; average 2500 units per disc, PBS pH 7.4, 39° C.): at least 120 hours

Insulin: Zn-Insulin / insulin purchased from Sigma, loaded into 3.4KL5
dimers or soluble aggregates ([3]; SEC-HPLC): no dimers or soluble aggregates were detected
release achieved (complete release) ([3]; within 24 hours): 100%
period over which insulin was released ([4]; 3.4KL5 particles (16 mg) in release-bag, PBS pH 7.4, 39° C.): 90 min
insulin still being released ([4]; after 90 minutes, 3.4KL5 particles): 100 µg

hGH: human growth hormone (MW 20 Kd)
growth of the rats [5]: exhibited continued growth

B1: bovine somatotropin (protein, UniProt P01246 27-217, looked up)
Somatotropin: AFPAMSLSGLFANAVLRAQHLHQLAADTFKEFERTYIPEGQRYSIQNTQVAFCFSETIPAPTGKNEAQQKSDLELLRISLLLIQSWLGPLQFLSRVFTNSLVFGTSDRVYEKLKDLEEGILALMRELEDGTPRAGQILKQTYDKFDTNMRSDDALLKNYGLLSCFRKDLHKTETYLRVMKCRRFGEASCAF
notes: bovine somatotropin (MW 20 Kd)
body weight after 11 days [6]: 151±4 grams
exponent n characteristic of the mode of transport ([7]; both cylinders, n>0.5 = non-Fickian): 2
incorporated drug released by the larger diameter cylinder (observed) ([7]; when the smaller diameter cylinder released 20%): 16%
initial release on each of the first two days ([8]; ZnbST 20% loading in blend of 3.4KL5 and PEG-diacrylate): 12%
period over which bST was released ([8]; ZnbST 20% loading in blend of 3.4KL5 and PEG-diacrylate MW 3,400, PBS pH 7.4, 39° C.): 14 days
dimers or soluble aggregates in the release media ([8]; ZnbST 20% loading in blend of 3.4KL5 and PEG-diacrylate, SEC-HPLC): No detectable levels

B2: ZnbST: ZnbST protein (Monsanto/Protiva) loaded into macromer hydrogels (protein, UniProt P01246 27-217, looked up)
Somatotropin: B1 Somatotropin
modifications: zinc complex
notes: ZnbST protein (Monsanto/Protiva) loaded into macromer hydrogels
initial burst release [9]: no initial burst release was observed
period over which ZnbST was released [9]: 20 days
concentrations of dimers or soluble aggregates ([9]; SEC-HPLC): less than 2%
period over which ZnbST was released ([10]; 25% loading in 75:25 blend of 3.4KL5 and 3.4KC6): 17 days
dimer or aggregate released ([10]; 75:25 blend of 3.4KL5 and 3.4KC6, SEC-HPLC): Very little
incorporated ZnbST released ([10]; within 13 days of release, 75:25 blend of 3.4KL5 and 3.4KC6): 90%
